Test system: Escherichia coli TOP10
Experiment: shrunken log2 fold change of peptide-encoding DNA abundance (4.5 h post-induction vs induction); higher = less antimicrobial activity (less host growth inhibition)
Details: time post-induction: 4.5 h; library: site-saturation at positions 5, 18, 19, 20
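Further: peptides expressed intracellularly from a pBAD plasmid library in pooled LB shake-flask culture, induced with 0.3% L-arabinose, DNA abundance read by NGS, three biological replicates, DESeq2 with apeglm shrinkage.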

| Sequence | shrunken log2 fold change |
| --- | --- |
| RRIRPRPPRLPRPRPRPWTLPRP | 0.104 |
| RRIRHRPPRLPRPRPRPQYNPRP | -0.655 |
| RRIRIRPPRLPRPRPRPKTSPRP | -0.465 |
| RRIRGRPPRLPRPRPRPEPQPRP | 1.41 |
| RRIRGRPPRLPRPRPRPAEWPRP | 0.542 |
| RRIRWRPPRLPRPRPRPHISPRP | 0.00485 |
| RRIRLRPPRLPRPRPRPYKTPRP | -0.352 |
| RRIRARPPRLPRPRPRPPMEPRP | 0.587 |
| RRIRKRPPRLPRPRPRPTSAPRP | 0.797 |
| RRIRHRPPRLPRPRPRPEARPRP | 0.192 |
| RRIRIRPPRLPRPRPRPNNQPRP | -0.836 |
| RRIRGRPPRLPRPRPRPTNIPRP | 0.298 |
| RRIRGRPPRLPRPRPRPHMQPRP | -0.121 |
| RRIRTRPPRLPRPRPRPCDKPRP | -0.138 |
| RRIRIRPPRLPRPRPRPMRCPRP | -0.0263 |
| RRIRNRPPRLPRPRPRPIWVPRP | -0.0659 |
| RRIRCRPPRLPRPRPRPEFFPRP | -0.127 |
| RRIRQRPPRLPRPRPRPSMIPRP | -0.603 |
| RRIRWRPPRLPRPRPRPHPCPRP | 0.12 |
| RRIRWRPPRLPRPRPRPGKFPRP | 0.26 |
| RRIRPRPPRLPRPRPRPISGPRP | -0.154 |
| RRIRKRPPRLPRPRPRPHALPRP | 0.154 |

| Sequence | shrunken log2 fold change |
| --- | --- |
| RRIRMRPPRLPRPRPRPPQYPRP | 0.465 |
| RRIRHRPPRLPRPRPRPGDFPRP | -0.147 |
| RRIRWRPPRLPRPRPRPKVVPRP | 0.352 |
| RRIRLRPPRLPRPRPRPAYPPRP | 0.283 |
| RRIRCRPPRLPRPRPRPKNWPRP | 0.331 |
| RRIRPRPPRLPRPRPRPHEHPRP | 0.0125 |
| RRIRGRPPRLPRPRPRPVEVPRP | 1.03 |
| RRIRFRPPRLPRPRPRPIKVPRP | -0.379 |
| RRIRKRPPRLPRPRPRPVCHPRP | 0.199 |
| RRIRYRPPRLPRPRPRPNKHPRP | -0.916 |
| RRIRIRPPRLPRPRPRPVNDPRP | -0.00973 |
| RRIRSRPPRLPRPRPRPKHDPRP | -0.0942 |
| RRIRGRPPRLPRPRPRPIHIPRP | 0.304 |
| RRIRQRPPRLPRPRPRPELEPRP | -0.0293 |
| RRIRERPPRLPRPRPRPYIAPRP | -0.946 |
| RRIRMRPPRLPRPRPRPMAHPRP | -0.0858 |
| RRIRLRPPRLPRPRPRPNWDPRP | 0.14 |
| RRIRKRPPRLPRPRPRPGFDPRP | 0.98 |
| RRIRNRPPRLPRPRPRPTPAPRP | 0.713 |
| RRIRYRPPRLPRPRPRPATFPRP | -0.681 |
| RRIRCRPPRLPRPRPRPFFWPRP | 0.359 |
| RRIRYRPPRLPRPRPRPHLRPRP | -0.485 |

| Sequence | shrunken log2 fold change |
| --- | --- |
| RRIRCRPPRLPRPRPRPTCMPRP | 0.173 |
| RRIRYRPPRLPRPRPRPPDQPRP | -0.145 |
| RRIRYRPPRLPRPRPRPDYCPRP | -0.00674 |
| RRIRFRPPRLPRPRPRPGEWPRP | -0.0225 |
| RRIRTRPPRLPRPRPRPYMRPRP | -0.48 |
| RRIRPRPPRLPRPRPRPDWMPRP | -0.212 |
| RRIRMRPPRLPRPRPRPCAPPRP | 0.478 |
| RRIRPRPPRLPRPRPRPTRWPRP | -0.0766 |
| RRIRNRPPRLPRPRPRPHQCPRP | -0.0318 |
| RRIRQRPPRLPRPRPRPEEQPRP | 0.39 |
| RRIRARPPRLPRPRPRPTRDPRP | 0.759 |
| RRIRHRPPRLPRPRPRPYQVPRP | -0.0252 |
| RRIRVRPPRLPRPRPRPQGFPRP | -0.0921 |
| RRIRERPPRLPRPRPRPYSKPRP | -0.464 |
| RRIRNRPPRLPRPRPRPCYYPRP | -0.387 |
| RRIRARPPRLPRPRPRPVDYPRP | 0.197 |
| RRIRHRPPRLPRPRPRPQIRPRP | -0.207 |
| RRIRSRPPRLPRPRPRPVSAPRP | 2.53 |
| RRIRARPPRLPRPRPRPHGPPRP | 0.321 |
| RRIRVRPPRLPRPRPRPRSFPRP | 0.029 |
| RRIRMRPPRLPRPRPRPSGQPRP | 0.602 |
| RRIRFRPPRLPRPRPRPWAGPRP | 0.116 |

| Sequence | shrunken log2 fold change |
| --- | --- |
| RRIRDRPPRLPRPRPRPGVWPRP | 0.886 |
| RRIRQRPPRLPRPRPRPQCMPRP | -0.496 |
| RRIRHRPPRLPRPRPRPKKRPRP | -0.163 |
| RRIRMRPPRLPRPRPRPITWPRP | -0.327 |
| RRIRLRPPRLPRPRPRPSISPRP | -0.655 |
| RRIRNRPPRLPRPRPRPGTMPRP | 0.0148 |
| RRIRKRPPRLPRPRPRPEREPRP | 0.671 |
| RRIRDRPPRLPRPRPRPSTEPRP | 0.301 |
| RRIRWRPPRLPRPRPRPNKCPRP | -0.109 |
| RRIRTRPPRLPRPRPRPGPFPRP | 0.102 |
| RRIRYRPPRLPRPRPRPAHIPRP | -0.467 |
| RRIRWRPPRLPRPRPRPANWPRP | 0.273 |
| RRIRVRPPRLPRPRPRPNWSPRP | -0.114 |
| RRIRFRPPRLPRPRPRPRHQPRP | 0.0747 |
| RRIRSRPPRLPRPRPRPWTNPRP | -0.0183 |
| RRIRWRPPRLPRPRPRPFLVPRP | -0.293 |
| RRIRWRPPRLPRPRPRPGETPRP | 0.174 |
| RRIRDRPPRLPRPRPRPCPEPRP | -0.0682 |
| RRIRVRPPRLPRPRPRPEKEPRP | 0.0209 |
| RRIRMRPPRLPRPRPRPALAPRP | 1.08 |
| RRIRDRPPRLPRPRPRPQPEPRP | 0.106 |
| RRIRTRPPRLPRPRPRPNWCPRP | -0.0796 |

| Sequence | shrunken log2 fold change |
| --- | --- |
| RRIRKRPPRLPRPRPRPIVVPRP | 0.0157 |
| RRIRARPPRLPRPRPRPKVRPRP | 0.047 |
| RRIRERPPRLPRPRPRPAHHPRP | -0.338 |
| RRIRERPPRLPRPRPRPIFHPRP | -0.395 |
| RRIRGRPPRLPRPRPRPATHPRP | 0.862 |
| RRIRFRPPRLPRPRPRPWNDPRP | -0.243 |
| RRIRWRPPRLPRPRPRPTKSPRP | 0.176 |
| RRIRWRPPRLPRPRPRPYHYPRP | 0.0463 |
| RRIRPRPPRLPRPRPRPIMNPRP | -0.799 |
| RRIRCRPPRLPRPRPRPSVSPRP | -0.185 |
| RRIRTRPPRLPRPRPRPEVWPRP | 0.546 |
| RRIRDRPPRLPRPRPRPYSSPRP | -0.152 |
| RRIRHRPPRLPRPRPRPSKFPRP | -0.64 |
| RRIRLRPPRLPRPRPRPHACPRP | 0.0658 |
| RRIRPRPPRLPRPRPRPWFLPRP | -0.458 |
| RRIRWRPPRLPRPRPRPCFYPRP | -0.249 |
| RRIRERPPRLPRPRPRPLLCPRP | -0.183 |
| RRIRMRPPRLPRPRPRPSCNPRP | 0.197 |
| RRIRNRPPRLPRPRPRPIINPRP | -0.265 |
| RRIRQRPPRLPRPRPRPTASPRP | -0.0116 |
| RRIRIRPPRLPRPRPRPADMPRP | -0.0222 |
